Measurements as given in the supplement of paper PMC10724198.
± gives the standard deviation of the averaged measurements.

Tested on: Saccharomyces cerevisiae
Assay: protein stability index of tFT-peptide fusion (C-terminal peptide) (PSI (0-1 scale)); higher = more stable (slower turnover)
Conditions: temperature: 30 C
Protocol: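 MPS profiling in S. cerevisiae of the yeast C-terminome library: the last 12 aa of each annotated ORF are fused to the C-terminus of a sfGFP-mCherry timer, after a GGGS linker. Cells are FACS-sorted into 8 mCherry/sfGFP bins and deep-sequenced. PSI runs from 0 (unstable) to 1 (stable); wild type and das1Δ backgrounds, two technical replicates each.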

[1] = genetic background: das1 deletion

Sequence	protein stability index [1]	protein stability index (genetic background: wild type)
LLERLSILDRLD [APS2 C-terminal 12 aa]	0.669 ± 0.019	0.69 ± 0.013
QFLFTGRQKNYV [ERP2 C-terminal 12 aa]	0.718 ± 0.017	0.718 ± 0.024
LPNVPTVAYVII [YNL319W C-terminal 12 aa]	0.6334 ± 0.0054	0.664 ± 0.024
FSTEYLGLICTY [YLR232W C-terminal 12 aa]	0.49388 ± 0.0004	0.5496 ± 0.0009
TVHQLRDRGFDI [ENV9 C-terminal 12 aa]	0.73 ± 0.0077	0.717 ± 0.014
IHCRSQNCLSLS [VBA4 C-terminal 12 aa]	0.687 ± 0.024	0.681 ± 0.016
LDKVGKKKGGKK [LRP1 C-terminal 12 aa]	0.701 ± 0.049	0.689 ± 0.025
QYTQRVGRPNFE [YGR226C C-terminal 12 aa]	0.7078 ± 0.0012	0.674 ± 0.026
AVNTLLWQEQYS [YDR042C C-terminal 12 aa]	0.739 ± 0.017	0.751 ± 0.13
YNSELVATKDIQ [PNT1 C-terminal 12 aa]	0.703 ± 0.012	0.7242 ± 0.0066
DKHEQPQIESPK [CFD1 C-terminal 12 aa]	0.7 ± 0.026	0.684 ± 0.021
GRPSMVPIAELK [MLH3 C-terminal 12 aa]	0.672 ± 0.019	0.714 ± 0.062
LKSLSKYSVQNS [CTF3 C-terminal 12 aa]	0.686 ± 0.014	0.678 ± 0.042
ANLRAYFGPGFT [BUD6 C-terminal 12 aa]	0.719 ± 0.017	0.691 ± 0.0094
DIFEDSSDEEQS [SPL2 C-terminal 12 aa]	0.7179 ± 0.00076	0.727 ± 0.084
SFERLLVETIYS [ALG13 C-terminal 12 aa]	0.5878 ± 0.0031	0.624 ± 0.01
GCVKMYKFDLND [MET30 C-terminal 12 aa]	0.713 ± 0.044	0.7322 ± 0.0023
TNGNKSCLYWRV [FMP25 C-terminal 12 aa]	0.678 ± 0.012	0.66 ± 0.044
STIQTTSVDPTT [BSC1 C-terminal 12 aa]	0.7104 ± 0.0039	0.682 ± 0.036
QKRSCFFLANIH [YKL183C-A C-terminal 12 aa]	0.661 ± 0.01	0.608 ± 0.027
SLNLILISMTFI [YCR097W-A C-terminal 12 aa]	0.429 ± 0.0075	0.449 ± 0.0049

Sequence	protein stability index [1]	protein stability index (genetic background: wild type)
IDDEDVVSLFAK [RBG2 C-terminal 12 aa]	0.714 ± 0.035	0.732 ± 0.057
SLLLEKLDPEIE [UBX5 C-terminal 12 aa]	0.731 ± 0.056	0.716 ± 0.013
PEMIEELDIDDE [GPD2 C-terminal 12 aa]	0.707 ± 0.018	0.658 ± 0.015
EKKDTEGDVDMD [SSE1 C-terminal 12 aa]	0.678 ± 0.0095	0.666 ± 0.011
VENEDEPLFIER [INP51 C-terminal 12 aa]	0.708 ± 0.0089	0.683 ± 0.0088
CVVGTLGSDLKS [YPR150W C-terminal 12 aa]	0.7093 ± 0.0042	0.697 ± 0.014
SENRFELAYFTS [YLR317W C-terminal 12 aa]	0.728 ± 0.027	0.6901 ± 0.0013
PEEETNWFSGHG [PRP31 C-terminal 12 aa]	0.745 ± 0.032	0.73 ± 0.025
ELPNGKVIYSRK [ERJ5 C-terminal 12 aa]	0.687 ± 0.067	0.745 ± 0.025
IKCKMPWSSPRQ [YOR238W C-terminal 12 aa]	0.705 ± 0.03	0.744 ± 0.032
ILFSFFCNLVAK [VTC4 C-terminal 12 aa]	0.524 ± 0.011	0.4997 ± 0.0011
AAISFKEAARTD [HYP2 C-terminal 12 aa]	0.725 ± 0.019	0.725 ± 0.07
VAPKPKTKQEKK [WRS1 C-terminal 12 aa]	0.684 ± 0.0071	0.658 ± 0.022
DEDDGMIIGSLW [AEP2 C-terminal 12 aa]	0.7004 ± 0.0057	0.708 ± 0.013
DAEGQENAASSE [RIM1 C-terminal 12 aa]	0.67571 ± 0.00047	0.67 ± 0.0069
EKCSYYFLSRAH [YNL017C C-terminal 12 aa]	0.6866 ± 0.0041	0.66 ± 0.023
GLKQKSTIVTVD [CDC5 C-terminal 12 aa]	0.6917 ± 0.0015	0.717 ± 0.078
KDKKKDKSNSSI [HMO1 C-terminal 12 aa]	0.7022 ± 0.0049	0.691 ± 0.052
SIINPSSNGCNK [YNL235C C-terminal 12 aa]	0.702 ± 0.028	0.615 ± 0.018
QFWKNTPKVEQK [HOC1 C-terminal 12 aa]	0.71 ± 0.024	0.695 ± 0.019
FVKDEIHKDILD [PEX21 C-terminal 12 aa]	0.7 ± 0.017	0.685 ± 0.011

Sequence	protein stability index [1]	protein stability index (genetic background: wild type)
DATSTLSSQPLD [MSP1 C-terminal 12 aa]	0.7244 ± 0.0059	0.695 ± 0.037
TVIALLVGWIYY [SCS22 C-terminal 12 aa]	0.241 ± 0.01	0.255 ± 0.0075
LPEAPSSQPLQA [TIM17 C-terminal 12 aa]	0.674 ± 0.013	0.696 ± 0.03
PKIGILHNYLYL [YFT2 C-terminal 12 aa]	0.698 ± 0.015	0.654 ± 0.0094
RQMTSSFFLVFA [YDR118W-A C-terminal 12 aa]	0.51187 ± 0.00022	0.508 ± 0.017
MMGFSNFATSKK [SNU23 C-terminal 12 aa]	0.728 ± 0.011	0.683 ± 0.035
VDTILDEDFLLR [APC11 C-terminal 12 aa]	0.715 ± 0.016	0.712 ± 0.013
GGGVLQLISYIL [YSY6 C-terminal 12 aa]	0.706 ± 0.0057	0.656 ± 0.015
TKEEIMHGLQAK [RPN5 C-terminal 12 aa]	0.682 ± 0.024	0.728 ± 0.01
FKLHNETRCRNR [VPS71 C-terminal 12 aa]	0.68 ± 0.017	0.677 ± 0.007
KQKDKEKNALLL [YBR113W C-terminal 12 aa]	0.689 ± 0.016	0.6802 ± 0.0029
SFTDVLGQEQFI [YLR252W C-terminal 12 aa]	0.7269 ± 0.0054	0.699 ± 0.031
QIVEEWIVSTEA [CLB4 C-terminal 12 aa]	0.623 ± 0.012	0.63 ± 0.023
LKKQIFEKVQKE [MET4 C-terminal 12 aa]	0.701 ± 0.02	0.635 ± 0.022
MAINDCFDQAQG [YER076C C-terminal 12 aa]	0.695 ± 0.0062	0.693 ± 0.012
DKSTFGLSPVKI [GRS2 C-terminal 12 aa]	0.691 ± 0.033	0.666 ± 0.0084
YKASGSYLEKYF [YPK3 C-terminal 12 aa]	0.7123 ± 0.0023	0.6863 ± 0.00092
TVFASNSFGVYV [OST5 C-terminal 12 aa]	0.669 ± 0.02	0.709 ± 0.06
TVGTGLITRIIE [TUF1 C-terminal 12 aa]	0.694 ± 0.032	0.6945 ± 0.0066
